Experimental data taken from paper PMC11242946, “Inhibition of ACE2–S Protein Interaction by a Short Functional Peptide with a Boomerang Structure” (Molecules, 2024).

Target: ACE2 on Vero E6 cells (monkey (endogenous in Vero E6))
Experiment: flow cytometry on cells

functional peptide KYPAY (K5)
IC50: 6.7 µM
